Target: GST-fusion protein containing amino acids 327-517 of KIAA0175 (human) (UniProt Q14680)
Test: cell-based or functional assay

Sequence of UniProt Q14680 (Q14680 327-517 S391Q): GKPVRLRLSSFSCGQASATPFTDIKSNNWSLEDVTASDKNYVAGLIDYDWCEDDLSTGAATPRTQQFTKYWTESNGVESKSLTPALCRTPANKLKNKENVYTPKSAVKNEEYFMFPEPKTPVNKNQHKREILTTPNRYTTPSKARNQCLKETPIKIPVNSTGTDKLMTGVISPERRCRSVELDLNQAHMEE

## Ataxia telangiectasia mutated (ATM), immunoprecipitated from cells (from UniProt Q13315 2-3056) (enzyme)
  increase in phosphorylation by ATM immunoprecipitated from gamma-irradiated cells: 2 to 3 fold

— EP1950297A2
